Numbered stars: 1 amine (or outer) side, 2 acyl side, 3 side chain; on linkers, the order of the positions; unused ones are H or OH. Square brackets hold non-standard residues; d marks the D form. * marks the point of attachment. AAsp = aza-Asp, O=C(N(CC(=O)[*:3])N[*:1])[*:2]; CH═CH‑COOCH2Ph = O=C(/C=C/*)OCc1ccccc1; CH:CH‑COOEt = CCOC(=O)/C=C/*; CH═CH‑COOEt = CCOC(=O)/C=C/*; Cbz = O=C(OCc1ccccc1)*
Columns and labels:
Assay in all cases: cell-based or functional assay
[1] = biological target: T1, Caspase-6 (UniProt P55212)
T1 sequence (looked up): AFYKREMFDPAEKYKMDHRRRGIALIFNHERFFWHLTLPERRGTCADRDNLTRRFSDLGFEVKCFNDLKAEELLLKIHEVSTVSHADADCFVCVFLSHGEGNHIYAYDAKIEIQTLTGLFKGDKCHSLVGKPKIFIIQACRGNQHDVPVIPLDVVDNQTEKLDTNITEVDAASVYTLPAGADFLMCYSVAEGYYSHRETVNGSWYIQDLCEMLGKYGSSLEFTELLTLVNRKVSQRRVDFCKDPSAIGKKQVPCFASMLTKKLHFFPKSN

[2] = biological target: Caspase-8 (UniProt Q14790)
[3] = biological target: T2, Caspase-3 (UniProt P42574)
T2 sequence (looked up): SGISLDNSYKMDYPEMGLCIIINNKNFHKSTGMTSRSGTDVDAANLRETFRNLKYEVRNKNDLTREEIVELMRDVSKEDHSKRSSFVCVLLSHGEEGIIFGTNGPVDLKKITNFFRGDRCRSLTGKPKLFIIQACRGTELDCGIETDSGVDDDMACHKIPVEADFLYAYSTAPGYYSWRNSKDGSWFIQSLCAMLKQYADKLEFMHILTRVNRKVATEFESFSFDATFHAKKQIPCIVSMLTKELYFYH

[4] = biological target: T3, Caspase-7 (UniProt P55210)
T3 sequence (looked up): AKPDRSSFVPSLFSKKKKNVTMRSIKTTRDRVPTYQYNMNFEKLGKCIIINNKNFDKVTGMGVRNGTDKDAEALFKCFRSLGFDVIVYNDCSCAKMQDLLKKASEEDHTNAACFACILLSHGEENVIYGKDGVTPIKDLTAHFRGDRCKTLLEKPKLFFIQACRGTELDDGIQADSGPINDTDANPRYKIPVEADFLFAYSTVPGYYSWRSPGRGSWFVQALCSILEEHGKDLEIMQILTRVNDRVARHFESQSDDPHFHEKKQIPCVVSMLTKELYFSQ

[5] = biological target: T4, Caspase-10 (UniProt Q92851)
T4 sequence (looked up): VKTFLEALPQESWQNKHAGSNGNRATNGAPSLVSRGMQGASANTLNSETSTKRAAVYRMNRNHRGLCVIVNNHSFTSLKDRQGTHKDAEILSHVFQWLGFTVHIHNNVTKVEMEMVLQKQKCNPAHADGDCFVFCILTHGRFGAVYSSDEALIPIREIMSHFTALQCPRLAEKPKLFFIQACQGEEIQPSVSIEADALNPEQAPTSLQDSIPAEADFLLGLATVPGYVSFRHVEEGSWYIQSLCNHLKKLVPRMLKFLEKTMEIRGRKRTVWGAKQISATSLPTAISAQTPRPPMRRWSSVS

[6] = biological target: Caspase-9 (UniProt P55211)
[7] = biological target: T5, Caspase-2 (UniProt P42575)
T5 sequence (looked up): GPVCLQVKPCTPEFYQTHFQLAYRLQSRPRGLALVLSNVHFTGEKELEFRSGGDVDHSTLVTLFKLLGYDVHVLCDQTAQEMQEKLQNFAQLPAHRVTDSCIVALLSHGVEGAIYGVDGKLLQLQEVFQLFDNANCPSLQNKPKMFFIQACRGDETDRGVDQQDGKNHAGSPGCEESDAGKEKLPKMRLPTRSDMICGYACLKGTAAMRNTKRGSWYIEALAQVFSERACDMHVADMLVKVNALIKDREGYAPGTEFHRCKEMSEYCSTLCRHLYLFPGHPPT

Chain of Caspase-8 (Q14790 217-479 limits assumed): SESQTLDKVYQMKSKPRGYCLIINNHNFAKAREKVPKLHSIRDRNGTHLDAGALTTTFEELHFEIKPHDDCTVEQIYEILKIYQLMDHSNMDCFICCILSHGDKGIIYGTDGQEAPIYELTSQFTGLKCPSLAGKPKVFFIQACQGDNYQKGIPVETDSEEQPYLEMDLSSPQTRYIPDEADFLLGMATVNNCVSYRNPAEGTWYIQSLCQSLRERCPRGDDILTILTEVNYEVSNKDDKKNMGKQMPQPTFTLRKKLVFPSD
Chain of Caspase-9 (P55211 whole entry): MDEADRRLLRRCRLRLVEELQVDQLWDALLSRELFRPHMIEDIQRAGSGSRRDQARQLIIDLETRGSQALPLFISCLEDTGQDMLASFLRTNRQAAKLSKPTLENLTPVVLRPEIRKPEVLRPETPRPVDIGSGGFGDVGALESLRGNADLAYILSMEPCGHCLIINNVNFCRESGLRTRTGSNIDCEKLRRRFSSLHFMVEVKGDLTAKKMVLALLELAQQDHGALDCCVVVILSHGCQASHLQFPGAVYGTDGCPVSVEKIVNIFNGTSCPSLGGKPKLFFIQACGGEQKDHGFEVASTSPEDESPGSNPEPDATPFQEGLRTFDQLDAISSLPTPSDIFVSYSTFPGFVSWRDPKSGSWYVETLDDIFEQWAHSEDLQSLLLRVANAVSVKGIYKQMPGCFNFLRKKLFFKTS

B1: Cbz-Val-Glu-Val-AAsp-CH═CH-COOEt (peptide)
peptide: Cbz-VEV[AAsp]-{CH:CH‑COOEt}
SMILES: CCOC(=O)/C=C/C(=O)N(CC(=O)O)NC(=O)[C@@H](NC(=O)[C@H](CCC(=O)O)NC(=O)[C@@H](NC(=O)OCc1ccccc1)C(C)C)C(C)C
In the case of B1, the k2 [1] is reported as 83600 M⁻¹ s⁻¹, the k2 [2] is reported as 176000 M⁻¹ s⁻¹ and the k2 [3] is reported as 41200 M⁻¹ s⁻¹. The k2 [4] was 3650 M⁻¹ s⁻¹, the k2 [5] was 6600 M⁻¹ s⁻¹ and the k2 [6] was 340 M⁻¹ s⁻¹. For the same binder, the k2 [7] was 115 M⁻¹ s⁻¹.

B2: Cbz-Ile-Glu-Thr-AAsp-CH═CH-COOEt (peptide)
peptide: Cbz-IET[AAsp]-{CH═CH‑COOEt}
SMILES: CCOC(=O)/C=C/C(=O)N(CC(=O)O)NC(=O)[C@@H](NC(=O)[C@H](CCC(=O)O)NC(=O)[C@@H](NC(=O)OCc1ccccc1)[C@@H](C)CC)[C@@H](C)O
With B2 the k2 [1] was 88700 M⁻¹ s⁻¹, the k2 [2] was 56500 M⁻¹ s⁻¹ and the k2 [3] was 6740 M⁻¹ s⁻¹. For the same binder, the k2 [4] was 530 M⁻¹ s⁻¹, the k2 [5] was 6900 M⁻¹ s⁻¹ and the k2 [7] was 300 M⁻¹ s⁻¹.

B3: Cbz-Ile-Glu-Thr-AAsp-CH═CH-COOCH2Ph (peptide)
peptide: Cbz-IET[AAsp]-{CH═CH‑COOCH2Ph}
SMILES: CC[C@H](C)[C@H](NC(=O)OCc1ccccc1)C(=O)N[C@@H](CCC(=O)O)C(=O)N[C@H](C(=O)NN(CC(=O)O)C(=O)/C=C/C(=O)OCc1ccccc1)[C@@H](C)O
Binder B3 has a k2 [1] of 23400 M⁻¹ s⁻¹, a k2 [2] of 148000 M⁻¹ s⁻¹ and a k2 [3] of 2300 M⁻¹ s⁻¹. For the same binder, the k2 [4] was 660 M⁻¹ s⁻¹, the k2 [5] was 15200 M⁻¹ s⁻¹ and the k2 [7] was 110 M⁻¹ s⁻¹.

Cbz-IET[AAsp]-{CH═CH‑CONHPh} [Cbz-Ile-Glu-Thr-AAsp-CH═CH-CONHPh] showed a k2 [1] of 99200 M⁻¹ s⁻¹, a k2 [2] of 245000 M⁻¹ s⁻¹ and a k2 [3] of 7030 M⁻¹ s⁻¹. The k2 [4] was 920 M⁻¹ s⁻¹, the k2 [5] was 9210 M⁻¹ s⁻¹ and the k2 [6] was 940 M⁻¹ s⁻¹. It also gave a k2 [7] of 365 M⁻¹ s⁻¹.

With Cbz-IET[AAsp]-{CH═CH‑CONHCH2Ph} [Cbz-Ile-Glu-Thr-AAsp-CH═CH-CONHCH2Ph] the k2 [1] was 16800 M⁻¹ s⁻¹, the k2 [2] was 61300 M⁻¹ s⁻¹ and the k2 [3] was 2250 M⁻¹ s⁻¹. The k2 [4] was 100 M⁻¹ s⁻¹, the k2 [5] was 503 M⁻¹ s⁻¹ and the k2 [6] was 440 M⁻¹ s⁻¹. It also gave a k2 [7] of 15 M⁻¹ s⁻¹.

Work on Cbz-IET[AAsp]-{CH═CH‑CONHCH2CH2Ph} [Cbz-Ile-Glu-Thr-AAsp-CH═CH-CONHCH2CH2Ph] yielded a k2 [1] of 18700 M⁻¹ s⁻¹, a k2 [2] of 71000 M⁻¹ s⁻¹ and a k2 [3] of 4750 M⁻¹ s⁻¹. It also gave a k2 [4] of 440 M⁻¹ s⁻¹, a k2 [5] of 8290 M⁻¹ s⁻¹ and a k2 [6] of 615 M⁻¹ s⁻¹. The k2 [7] was 30 M⁻¹ s⁻¹.

— patent US20050256058A1
